The supplement of paper PMC7877785
± gives the uncertainty stated by the source.

Experiment: self-splicing fitness, log relative to wild type (ln ratio); higher = more splicing; Tetrahymena group I intron in knt gene, E. coli kanamycin selection, DiMSum; sequences stand for … in CUCUCU…GGAGGGAAAAGUUAUCAGGCAUGCACCUGGUAGCUAGUCUUUAAACCAAUAGAUUGCAUCGGUUUAAAAGGCAAGACCGUCAAAUUGCGGGAAAGGGGUCAACAGCCGUUCAGUACCAAGUCUCAGGGGAAACUUUGAGAUGGCCUUGCAAAGGGUAUGGUAAUAAGCUGACGGACAUGGUCCUAACCACGCAGCCAAGUCCUAAGUCAACAGAUCUUCUGUUGAUAUGGAUGCAGUUCACAGACUAAAUGUCGGUCGGGGAAGAUGUAUUCUUCUCAUAAGAUAUAGUCGGACCUCUCCUUAAUGGGAGCUAGCGGAUGAAGUGAUGCAACACUGGAGCCGCUGGGAACUAAUUUGUAUGCGAAAGUAUAUUGAUUAGUUUUGGAGUACUCGUGGUCG
How it was run: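 Library with all eight P1ex-region intron nucleotides randomised, intron inside the knt kanamycin-resistance gene on pET-22b(+), in E. coli BL21(DE3). Cells grew overnight at 37°C or 30°C on LB agar with or without 25 μg/mL kanamycin (plus 100 μg/mL carbenicillin, 50 μM IPTG, 0.2% rhamnose), in six replicate transformations. Pooled colonies were amplicon-sequenced on Illumina HiSeq 2500. DiMSum fitness is the error-weighted combination of wild-type-normalised replicate fold changes, kanamycin versus none.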

Row | Sequence | self-splicing fitness (ln) (30 °C) | self-splicing fitness (ln) (37 °C)
1 | AGUUAGCAAUAUUACGAUAC | -2.6 ± 0.25 | -1.51 ± 0.24
2 | AGUUAGCAAUAUUACGAUAG | -3.19 ± 0.29 | -1.77 ± 0.29
3 | AGUUAGCAAUAUUACGAUCA | -0.843 ± 0.13 | 0.619 ± 0.12
4 | AGUUAGCAAUAUUACGCCCC | -0.473 ± 0.23 | –
5 | AGUUAGCAAUAUUACGCCCG | -1.52 ± 0.44 | 0.364 ± 0.45
6 | AGUUAGCAAUAUUACGCGCA | -0.182 ± 0.14 | 0.341 ± 0.21
7 | AGUUAGCAAUAUUACGCGGU | -2.58 ± 0.14 | -1.93 ± 0.18
8 | AGUUAGCAAUAUUACGCUAA | -3.11 ± 0.43 | -2.29 ± 0.41
9 | AGUUAGCAAUAUUACGGAAC | – | -2.72 ± 0.38
10 | AGUUAGCAAUAUUACGGCAU | -0.297 ± 0.063 | -0.161 ± 0.085
11 | AGUUAGCAAUAUUACGGCCG | -0.855 ± 0.21 | -0.628 ± 0.3
12 | AGUUAGCAAUAUUACGGCUG | -0.983 ± 0.085 | -0.309 ± 0.11
13 | AGUUAGCAAUAUUACGGGAU | -3.18 ± 0.26 | -1.46 ± 0.22
14 | AGUUAGCAAUAUUACGGUUG | -3.09 ± 0.24 | -1.99 ± 0.22
15 | AGUUAGCAAUAUUACGUACA | -1.06 ± 0.09 | -0.266 ± 0.12
16 | AGUUAGCAAUAUUACGUAGA | -3.12 ± 0.14 | -1.59 ± 0.14
17 | AGUUAGCAAUAUUACGUAUA | -3.01 ± 0.19 | -1.57 ± 0.16
18 | AGUUAGCAAUAUUACGUCAC | – | -0.825 ± 0.31
19 | AGUUAGCAAUAUUACGUCUA | -0.594 ± 0.12 | -0.0617 ± 0.1
20 | AGUUAGCAAUAUUACGUGAA | -2.78 ± 0.15 | -2.31 ± 0.2
21 | AGUUAGCAAUAUUACGUGAG | -1.53 ± 0.12 | -1.86 ± 0.14
22 | AGUUAGCAAUAUUACGUUAA | -3.56 ± 0.38 | -1.48 ± 0.26
23 | AGUUAGCAAUAUUACGUUAG | -3.45 ± 0.23 | -2.72 ± 0.3
24 | AGUUAGCAAUAUUACGUUGG | -2.67 ± 0.19 | -2.3 ± 0.21

Row | Sequence | self-splicing fitness (ln) (30 °C) | self-splicing fitness (ln) (37 °C)
25 | AUAAAGCAAUAUUACGAAUU | -1.23 ± 0.064 | -0.731 ± 0.089
26 | AUAAAGCAAUAUUACGACAU | 0.424 ± 0.012 | 0.344 ± 0.032
27 | AUAAAGCAAUAUUACGACUA | 0.277 ± 0.083 | 0.129 ± 0.1
28 | AUAAAGCAAUAUUACGACUU | 0.0576 ± 0.088 | 0.686 ± 0.13
29 | AUAAAGCAAUAUUACGAGGC | -3.29 ± 0.17 | -2.7 ± 0.32
30 | AUAAAGCAAUAUUACGAGUG | -2.03 ± 0.1 | -1.16 ± 0.12
31 | AUAAAGCAAUAUUACGAUGA | -0.326 ± 0.083 | 0.153 ± 0.12
32 | AUAAAGCAAUAUUACGAUUU | 0.496 ± 0.082 | 0.827 ± 0.1
33 | AUAAAGCAAUAUUACGCCAG | -0.993 ± 0.12 | -0.785 ± 0.16
34 | AUAAAGCAAUAUUACGCCAU | -0.694 ± 0.095 | -0.176 ± 0.14
35 | AUAAAGCAAUAUUACGCCUU | -0.274 ± 0.094 | 0.0912 ± 0.12
36 | AUAAAGCAAUAUUACGCUUG | -0.77 ± 0.082 | -0.368 ± 0.11
37 | AUAAAGCAAUAUUACGGAAC | -2.45 ± 0.26 | -0.934 ± 0.19
38 | AUAAAGCAAUAUUACGGAGC | -2.79 ± 0.2 | -2.21 ± 0.22
39 | AUAAAGCAAUAUUACGGCAG | -0.699 ± 0.092 | -0.0772 ± 0.13
40 | AUAAAGCAAUAUUACGGCGA | 0.447 ± 0.1 | 1.03 ± 0.14
41 | AUAAAGCAAUAUUACGGGAC | -1.72 ± 0.1 | -2.4 ± 0.16
42 | AUAAAGCAAUAUUACGGGAU | -0.81 ± 0.055 | -0.671 ± 0.083
43 | AUAAAGCAAUAUUACGGGUG | -1.03 ± 0.082 | -0.259 ± 0.094
44 | AUAAAGCAAUAUUACGGGUU | -2.17 ± 0.09 | -1.17 ± 0.098
45 | AUAAAGCAAUAUUACGUACA | -0.00533 ± 0.067 | 0.315 ± 0.098
46 | AUAAAGCAAUAUUACGUAGA | -2.36 ± 0.11 | -0.832 ± 0.12
47 | AUAAAGCAAUAUUACGUGUA | -1.55 ± 0.069 | -0.325 ± 0.089
48 | AUAAAGCAAUAUUACGUUAC | -2.55 ± 0.13 | -0.574 ± 0.12

Row | Sequence | self-splicing fitness (ln) (30 °C) | self-splicing fitness (ln) (37 °C)
49 | AUAAAGCAAUAUUACGUUUU | -2.37 ± 0.097 | -1.11 ± 0.12
50 | AUACAGCAAUAUUACGACCU | 0.331 ± 0.084 | 0.122 ± 0.094
51 | AUACAGCAAUAUUACGACUA | -0.177 ± 0.1 | -0.541 ± 0.089
52 | AUACAGCAAUAUUACGAGCG | -1.63 ± 0.096 | -0.55 ± 0.1
53 | AUACAGCAAUAUUACGAGGC | -2.99 ± 0.19 | -2.23 ± 0.2
54 | AUACAGCAAUAUUACGAUAA | -1.37 ± 0.099 | -0.374 ± 0.11
55 | AUACAGCAAUAUUACGAUCG | -0.733 ± 0.071 | -0.839 ± 0.097
56 | AUACAGCAAUAUUACGCCCG | -0.847 ± 0.17 | -0.634 ± 0.25
57 | AUACAGCAAUAUUACGCCUC | -2.79 ± 0.2 | -1.86 ± 0.17
58 | AUACAGCAAUAUUACGCGUA | -1.76 ± 0.11 | -0.809 ± 0.097
59 | AUACAGCAAUAUUACGCUAU | -3.03 ± 0.11 | -1.29 ± 0.087
60 | AUACAGCAAUAUUACGGCCG | -1.33 ± 0.16 | -1.14 ± 0.23
61 | AUACAGCAAUAUUACGGCUC | -0.178 ± 0.075 | 0.157 ± 0.1
62 | AUACAGCAAUAUUACGGGUA | -1.24 ± 0.078 | -0.645 ± 0.078
63 | AUACAGCAAUAUUACGGGUG | -1.63 ± 0.065 | -1 ± 0.073
64 | AUACAGCAAUAUUACGGGUU | -1.9 ± 0.071 | -1.05 ± 0.077
65 | AUACAGCAAUAUUACGUAUU | -3.18 ± 0.16 | -2.54 ± 0.2
66 | AUACAGCAAUAUUACGUCCU | -0.382 ± 0.073 | 1.06 ± 0.096
67 | AUAGAGCAAUAUUACGAUAC | -0.998 ± 0.12 | -0.0688 ± 0.19
68 | AUAGAGCAAUAUUACGAUCU | -0.131 ± 0.12 | -0.042 ± 0.17
69 | AUAGAGCAAUAUUACGAUGG | -2.76 ± 0.21 | -2.02 ± 0.31
70 | AUAGAGCAAUAUUACGAUUG | -3.46 ± 0.2 | -1.33 ± 0.15
71 | AUAGAGCAAUAUUACGCAAC | – | -1.78 ± 0.41
72 | AUAGAGCAAUAUUACGCAGU | -1.73 ± 0.16 | -0.369 ± 0.19

Row | Sequence | self-splicing fitness (ln) (30 °C) | self-splicing fitness (ln) (37 °C)
73 | AUAGAGCAAUAUUACGCAUU | -1.19 ± 0.096 | -0.296 ± 0.1
74 | AUAGAGCAAUAUUACGCCUA | -0.415 ± 0.11 | 0.144 ± 0.15
75 | AUAGAGCAAUAUUACGCCUC | -1.52 ± 0.24 | -0.831 ± 0.5
76 | AUAGAGCAAUAUUACGCGGC | -3.33 ± 0.35 | -1.78 ± 0.25
77 | AUAGAGCAAUAUUACGGACU | -1.15 ± 0.13 | -1.65 ± 0.23
78 | AUAGAGCAAUAUUACGGCCC | -1.68 ± 0.17 | -0.799 ± 0.3
79 | AUAGAGCAAUAUUACGGGGC | -3.43 ± 0.43 | -2.51 ± 0.41
80 | AUAGAGCAAUAUUACGGUAA | -1.76 ± 0.15 | -1.42 ± 0.17
81 | AUAGAGCAAUAUUACGGUCA | -1.48 ± 0.14 | -0.634 ± 0.21
82 | AUAGAGCAAUAUUACGUACC | -3.3 ± 0.16 | -1.3 ± 0.15
83 | AUAGAGCAAUAUUACGUCAG | -3.64 ± 0.28 | -2.66 ± 0.23
84 | AUAGAGCAAUAUUACGUCCA | -2.35 ± 0.21 | -0.672 ± 0.2
85 | AUAGAGCAAUAUUACGUCGG | -3.26 ± 0.14 | -2.27 ± 0.17
86 | AUAUAGCAAUAUUACGAAAU | -1.01 ± 0.21 | -1.72 ± 0.28
87 | AUAUAGCAAUAUUACGAACA | -0.789 ± 0.2 | -0.183 ± 0.21
88 | AUAUAGCAAUAUUACGAAUU | -2.52 ± 0.16 | -0.909 ± 0.14
89 | AUAUAGCAAUAUUACGACCC | -1.24 ± 0.28 | –
90 | AUAUAGCAAUAUUACGACUU | 0.217 ± 0.073 | -0.272 ± 0.075
91 | AUAUAGCAAUAUUACGAUAC | -1.66 ± 0.35 | -0.756 ± 0.26
92 | AUAUAGCAAUAUUACGAUGA | -0.834 ± 0.16 | -0.885 ± 0.17
93 | AUAUAGCAAUAUUACGCAUU | -3.04 ± 0.18 | -1.42 ± 0.15
94 | AUAUAGCAAUAUUACGCCAU | -1.32 ± 0.18 | -1.38 ± 0.21
95 | AUAUAGCAAUAUUACGCCGA | -2.85 ± 0.48 | -1.13 ± 0.35
96 | AUAUAGCAAUAUUACGGACC | -0.93 ± 0.22 | -0.283 ± 0.24
